Here are results for one substance from patent US20100041873A1.

The assay has as its target Human IL-21 receptor on Baf3/KZ134/huIL-21R cells (human) (UniProt Q9HBE5). The experiment in a line: cell-based or functional assay.

Human IL-21 receptor on Baf3/KZ134/huIL-21R cells (human), sequence (Q9HBE5 20-538): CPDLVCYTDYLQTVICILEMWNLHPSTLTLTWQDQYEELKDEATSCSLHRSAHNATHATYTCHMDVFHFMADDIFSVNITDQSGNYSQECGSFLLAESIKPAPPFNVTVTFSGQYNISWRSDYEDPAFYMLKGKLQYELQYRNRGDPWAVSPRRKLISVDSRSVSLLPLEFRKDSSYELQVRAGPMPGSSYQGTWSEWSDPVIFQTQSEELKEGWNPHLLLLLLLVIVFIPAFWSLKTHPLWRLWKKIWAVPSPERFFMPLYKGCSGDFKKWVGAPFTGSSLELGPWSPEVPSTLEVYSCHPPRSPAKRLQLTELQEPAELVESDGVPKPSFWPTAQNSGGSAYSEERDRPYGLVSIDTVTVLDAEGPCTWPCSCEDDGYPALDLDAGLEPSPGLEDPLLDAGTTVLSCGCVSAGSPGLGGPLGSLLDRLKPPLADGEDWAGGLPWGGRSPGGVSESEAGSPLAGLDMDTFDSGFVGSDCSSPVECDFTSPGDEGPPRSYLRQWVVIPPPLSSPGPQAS

“Recombinant rat IL-21 (from UniProt A3QPB9 18-146) (ligand)”: the EC90, 24 hr STAT-Luciferase assay in Baf3/KZ134/huIL-21R cells turned out to be 1.08 nM.
